Assays:
Experiment in all cases: BLI; His-tagged NB7 (500 nM) immobilised on Anti-Penta-His biosensor, dipped into PI3K in solution; dose response 50-1.9 nM for p110γ, p110γ-p84, p110γ-p101; 50 nM for the class IA comparison; 25 nM for phosphorylated and non-phosphorylated p110γ; Octet buffer 20 mM Tris pH 8.5, 100 mM NaCl, 50 mM ammonium sulfate, 0.1% BSA, 0.02% Tween 20; global fit to a 1:1 model
Settings in all cases: both partners purified
[1] = molecular target: T1, p110γ-p84 complex (human p110γ, mouse p84) (Homo sapiens p110γ; Mus musculus p84, UniProt P48736;Q3U6Q4)
T1 construct: p110γ catalytic subunit, human; plasmid pMultiBac-hsp110γ-mmp84 (MR24); p84 regulatory subunit of PI3Kγ, Mus musculus; The tag stood on p84 for purification and was cleaved by TEV on the column; also called p110/p84; not shown: 10xHis, N-terminal, cleaved; 2xStrep, N-terminal, cleaved

[2] = molecular target: T2, p110γ-p101 complex (human p110γ, porcine p101) (Homo sapiens p110γ; Sus scrofa p101, UniProt P48736;O02696)
T2 construct: p110γ catalytic subunit, human; plasmid pMultiBac-hsp110γ-ssp101 (MR22); full length p110γ in the p110γ-p101 model PDB 7MEZ; p101 regulatory subunit of PI3Kγ, Sus scrofa; The tag stood on p101 for purification and was cleaved by TEV on the column; also called p110/p101; not shown: 10xHis, N-terminal, cleaved; 2xStrep, N-terminal, cleaved

[3] = molecular target: T3, p110α-p85α complex (Homo sapiens (assumed), UniProt P42336;P27986)
T3 construct: p110α class IA PI3K catalytic subunit; plasmid pFASTBac p110α (pOV1181); p85α class IA regulatory subunit; Plasmids as described in Dornan et al., 2017 and Siempelkamp et al., 2017; also called PI3Kα; source: PI3Kα gel filtration buffer

[4] = molecular target: T4, p110β-p85β complex (Homo sapiens (assumed), UniProt P42338;O00459)
T4 construct: p110β class IA PI3K catalytic subunit; plasmid pFASTBac p110β (pOV1182); p85β class IA regulatory subunit; also called PI3Kβ; source: PI3Kα gel filtration buffer

[5] = molecular target: T5, p110δ-p85β complex (Homo sapiens (assumed), UniProt O00329;O00459)
T5 construct: p110δ class IA PI3K catalytic subunit; plasmid pFASTBac p110δ (pOV1183); p85β class IA regulatory subunit; also called PI3Kδ; source: PI3Kα gel filtration buffer

T2 sequence (P48736 whole entry, chain 1 of 2): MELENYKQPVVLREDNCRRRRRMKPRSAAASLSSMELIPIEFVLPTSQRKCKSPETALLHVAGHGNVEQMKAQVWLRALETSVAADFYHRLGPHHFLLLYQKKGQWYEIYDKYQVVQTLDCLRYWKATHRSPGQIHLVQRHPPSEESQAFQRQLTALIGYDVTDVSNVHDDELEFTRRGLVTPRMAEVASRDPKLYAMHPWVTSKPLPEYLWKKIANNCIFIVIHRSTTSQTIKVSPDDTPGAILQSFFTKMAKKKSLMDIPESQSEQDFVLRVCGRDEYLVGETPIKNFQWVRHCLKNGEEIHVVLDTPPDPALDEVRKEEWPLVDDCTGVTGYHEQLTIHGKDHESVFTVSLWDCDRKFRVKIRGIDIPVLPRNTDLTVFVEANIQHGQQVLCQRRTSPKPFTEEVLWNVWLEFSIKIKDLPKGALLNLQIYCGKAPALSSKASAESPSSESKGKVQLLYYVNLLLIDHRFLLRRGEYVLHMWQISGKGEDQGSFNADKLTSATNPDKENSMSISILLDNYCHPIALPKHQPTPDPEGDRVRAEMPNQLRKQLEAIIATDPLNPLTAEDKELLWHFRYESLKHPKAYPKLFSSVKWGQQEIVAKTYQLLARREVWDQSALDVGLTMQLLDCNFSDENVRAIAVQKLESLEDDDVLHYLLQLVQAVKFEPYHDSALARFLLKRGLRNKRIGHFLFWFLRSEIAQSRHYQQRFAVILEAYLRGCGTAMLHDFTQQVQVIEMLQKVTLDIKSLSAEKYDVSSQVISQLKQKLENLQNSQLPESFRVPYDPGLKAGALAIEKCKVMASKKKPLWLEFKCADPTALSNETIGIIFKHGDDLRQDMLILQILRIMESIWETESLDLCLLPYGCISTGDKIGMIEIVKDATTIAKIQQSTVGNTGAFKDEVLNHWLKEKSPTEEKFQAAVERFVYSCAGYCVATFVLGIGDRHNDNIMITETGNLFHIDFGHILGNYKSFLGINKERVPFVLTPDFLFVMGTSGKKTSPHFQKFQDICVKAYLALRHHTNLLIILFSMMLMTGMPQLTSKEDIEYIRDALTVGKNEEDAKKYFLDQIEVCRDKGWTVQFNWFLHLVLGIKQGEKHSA
T2 sequence (O02696 whole entry, chain 2 of 2): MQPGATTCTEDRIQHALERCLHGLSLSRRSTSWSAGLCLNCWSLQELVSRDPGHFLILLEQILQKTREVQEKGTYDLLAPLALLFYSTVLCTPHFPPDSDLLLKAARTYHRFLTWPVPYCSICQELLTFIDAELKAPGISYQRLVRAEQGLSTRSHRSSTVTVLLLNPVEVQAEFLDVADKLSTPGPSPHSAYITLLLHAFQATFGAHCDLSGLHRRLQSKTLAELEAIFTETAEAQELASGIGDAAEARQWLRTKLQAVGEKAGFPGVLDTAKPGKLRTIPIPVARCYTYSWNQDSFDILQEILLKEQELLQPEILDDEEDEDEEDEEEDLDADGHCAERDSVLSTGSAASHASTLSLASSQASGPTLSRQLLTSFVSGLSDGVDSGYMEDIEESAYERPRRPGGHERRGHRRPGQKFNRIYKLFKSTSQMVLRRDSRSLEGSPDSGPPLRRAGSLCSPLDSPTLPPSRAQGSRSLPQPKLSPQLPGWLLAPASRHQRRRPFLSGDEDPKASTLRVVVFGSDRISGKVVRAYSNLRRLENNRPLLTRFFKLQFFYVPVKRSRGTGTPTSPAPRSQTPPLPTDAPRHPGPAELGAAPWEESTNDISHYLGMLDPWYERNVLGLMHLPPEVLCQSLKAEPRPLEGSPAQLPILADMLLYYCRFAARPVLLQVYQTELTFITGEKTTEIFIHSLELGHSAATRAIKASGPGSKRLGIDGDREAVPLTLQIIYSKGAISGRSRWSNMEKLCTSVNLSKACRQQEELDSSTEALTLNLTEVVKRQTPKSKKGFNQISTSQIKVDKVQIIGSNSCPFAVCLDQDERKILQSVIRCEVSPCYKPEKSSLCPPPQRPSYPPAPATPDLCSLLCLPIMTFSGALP
T1 sequence (P48736 whole entry, chain 1 of 2): as the sequence (P48736 whole entry, chain 1 of 2) above
T1 sequence (Q3U6Q4 whole entry, chain 2 of 2): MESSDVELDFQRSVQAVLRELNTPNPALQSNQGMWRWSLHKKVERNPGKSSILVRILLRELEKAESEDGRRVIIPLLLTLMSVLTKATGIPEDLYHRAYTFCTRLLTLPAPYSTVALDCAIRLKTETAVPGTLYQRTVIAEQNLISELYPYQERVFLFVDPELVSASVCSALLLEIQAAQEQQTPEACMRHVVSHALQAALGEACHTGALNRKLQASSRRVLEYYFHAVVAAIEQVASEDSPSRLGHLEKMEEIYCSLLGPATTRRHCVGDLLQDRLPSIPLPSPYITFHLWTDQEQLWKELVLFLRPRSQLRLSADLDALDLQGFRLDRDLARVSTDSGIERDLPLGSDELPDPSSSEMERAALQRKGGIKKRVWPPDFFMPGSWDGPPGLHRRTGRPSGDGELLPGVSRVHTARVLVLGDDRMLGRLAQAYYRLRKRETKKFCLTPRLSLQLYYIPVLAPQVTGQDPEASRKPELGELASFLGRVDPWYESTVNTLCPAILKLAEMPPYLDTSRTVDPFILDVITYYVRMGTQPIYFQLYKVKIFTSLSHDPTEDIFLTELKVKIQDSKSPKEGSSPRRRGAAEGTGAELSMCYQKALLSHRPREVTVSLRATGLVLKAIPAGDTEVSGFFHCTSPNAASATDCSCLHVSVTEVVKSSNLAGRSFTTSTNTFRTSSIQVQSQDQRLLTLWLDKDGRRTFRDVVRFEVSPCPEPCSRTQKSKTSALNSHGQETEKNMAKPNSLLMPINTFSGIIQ
T3 sequence (P42336 whole entry, chain 1 of 2): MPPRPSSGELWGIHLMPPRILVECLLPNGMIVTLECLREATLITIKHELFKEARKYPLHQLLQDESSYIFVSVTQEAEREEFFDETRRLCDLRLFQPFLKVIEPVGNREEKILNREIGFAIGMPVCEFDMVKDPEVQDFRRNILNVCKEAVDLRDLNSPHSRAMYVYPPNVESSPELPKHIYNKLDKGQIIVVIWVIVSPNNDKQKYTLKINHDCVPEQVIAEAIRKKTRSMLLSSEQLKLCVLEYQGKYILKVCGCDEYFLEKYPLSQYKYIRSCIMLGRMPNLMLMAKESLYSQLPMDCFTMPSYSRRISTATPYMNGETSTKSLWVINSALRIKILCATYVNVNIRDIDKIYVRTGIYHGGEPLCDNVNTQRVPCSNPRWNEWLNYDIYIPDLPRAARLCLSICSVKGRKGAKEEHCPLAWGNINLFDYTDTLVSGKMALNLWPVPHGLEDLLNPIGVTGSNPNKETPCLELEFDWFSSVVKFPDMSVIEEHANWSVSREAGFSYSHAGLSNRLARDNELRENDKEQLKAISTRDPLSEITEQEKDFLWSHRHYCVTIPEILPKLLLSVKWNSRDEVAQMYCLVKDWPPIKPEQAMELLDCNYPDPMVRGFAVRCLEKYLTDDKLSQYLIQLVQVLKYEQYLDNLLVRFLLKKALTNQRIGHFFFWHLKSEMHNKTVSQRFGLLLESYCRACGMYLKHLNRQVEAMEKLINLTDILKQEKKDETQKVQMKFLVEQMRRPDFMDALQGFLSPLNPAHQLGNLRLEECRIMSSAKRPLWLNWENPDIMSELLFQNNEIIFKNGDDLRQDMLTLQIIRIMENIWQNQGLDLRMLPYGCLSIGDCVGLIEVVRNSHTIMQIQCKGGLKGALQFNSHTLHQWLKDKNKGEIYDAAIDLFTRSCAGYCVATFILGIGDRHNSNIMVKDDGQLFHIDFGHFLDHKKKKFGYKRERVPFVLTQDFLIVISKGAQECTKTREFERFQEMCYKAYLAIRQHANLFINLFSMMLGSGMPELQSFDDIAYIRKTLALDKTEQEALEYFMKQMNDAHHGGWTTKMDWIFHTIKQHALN
T3 sequence (P27986 whole entry, chain 2 of 2): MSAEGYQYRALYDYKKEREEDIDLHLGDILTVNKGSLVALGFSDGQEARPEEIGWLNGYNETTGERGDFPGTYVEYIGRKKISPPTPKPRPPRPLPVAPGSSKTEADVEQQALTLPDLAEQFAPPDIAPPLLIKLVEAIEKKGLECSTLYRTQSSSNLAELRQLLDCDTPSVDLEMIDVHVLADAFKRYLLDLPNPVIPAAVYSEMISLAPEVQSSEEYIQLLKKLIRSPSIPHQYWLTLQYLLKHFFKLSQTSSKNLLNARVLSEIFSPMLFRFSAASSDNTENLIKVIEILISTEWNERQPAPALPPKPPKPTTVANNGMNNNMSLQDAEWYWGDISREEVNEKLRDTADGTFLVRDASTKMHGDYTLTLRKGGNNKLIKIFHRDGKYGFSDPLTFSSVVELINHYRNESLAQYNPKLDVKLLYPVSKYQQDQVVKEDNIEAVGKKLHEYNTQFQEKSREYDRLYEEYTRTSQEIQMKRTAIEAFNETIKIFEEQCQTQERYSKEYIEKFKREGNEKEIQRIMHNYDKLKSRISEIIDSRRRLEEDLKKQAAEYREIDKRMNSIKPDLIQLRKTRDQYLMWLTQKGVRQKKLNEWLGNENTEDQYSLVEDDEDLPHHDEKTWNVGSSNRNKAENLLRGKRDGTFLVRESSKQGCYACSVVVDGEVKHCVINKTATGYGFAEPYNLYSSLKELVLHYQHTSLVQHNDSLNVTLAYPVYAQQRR

B1: Nanobody NB7-PIK3CG (VHH)
VHH: QVQLVESGGGLVQPGGSLRLSCAASGSIFSINAMGWYRQAPGKQRELVAHITSGGSTNYADSVKGRFTISRDNAKNTVYLQMNSLKPEDTAVYYCNEAGDPFLGSTWNGPPAFGSWGQGTQVTVSS
notes: Identified earlier (Rathinaswamy et al., 2021b); also called His-NB7; nanobody 7; source: E. coli WK6 periplasm (pMESy4 vector), purified (Ni-NTA, SEC); not shown: His6, C-terminal, kept
Kd [1]: ~2 nM
Kd [2]: ~2 nM
binding result [3]: no binding (tested: 50 nM)
binding result [4]: no binding (tested: 50 nM)
binding result [5]: no binding (tested: 50 nM)
